The source of these data is the RNAGym collection of RNA variant scans (doi:10.7554/elife.90254).

B1: OR4K15 (parent)
chain: GUUAACGGUCAUAGGCCAUGGAAACUAGGAGCACCAUUUCGCUGCCAGUGAAGAAAUGAACAAAGAAAAUCUGGGCCAGGCAGGCAUCAAAAGAAAUAGUCUUGCGCUCAACCAGAAAGUCUGUAAUCAUUUUAAGGGUA

Variants of B1 are the subject of this data set. Kind of data set: self-cleavage, relative activity (ratio to wild type); higher = more cleavage; in vitro, sequencing; the parent is a self-cleaving ribozyme.
As to C46A A60G, the self-cleavage amounted to 0.67.
The same measure for G44A A134G: 1.84; for G44U A135G: 1.6.
Then U43A A89G, with 1.77; and U39C U102C, with 2.19; and C40U A111G, with 0.02.
The same measure for U43G A54U: 1.97.
In the case of G44A A125C, the self-cleavage was 1.48.
Then C40A A64G, with 2.37; and G41A A82U, with 0.14.
The same measure for U43C A64U: 1.82.
Then U43C A64G, with 1.66; and C42G A95G, with 1.87.
For U43A A78U, the self-cleavage was determined as 1.02.
Turning to U43A A78G, the self-cleavage was found to be 0.14.
The same measure for U43C U103C: 1.03; for U43C U103A: 0.41.
Then U39C G106U, with 0.02; and C45A U120A, with 2.12.
On to C40A U122C, for which the self-cleavage amounted to 1.07.
The same measure for C45U U127C: 0.56; for G44A G93C: 1.87.
Then G41A U108C, with 0.01; and C45A A117G, with 2.96.
The same measure for C40U U103A: 1.28; for C42U U103A: 1.01; for G44A G65A: 0.
In the case of G41A A64G, the self-cleavage stood at 2.12.
Consider U43C A52U, for which the self-cleavage turned out to be 1.51.
Then U43C A52G, with 1.49; and U43G A67U, with 2.63; and U43G A67G, with 1.89.
Then U39C C76U, with 0.19; and C40U U100C, with 1.83.
Then U39C A126G, with 1.18; and U39C A126U, with 1.06; and U43A U133C, with 2.13.
As for U43C A89G, the self-cleavage stood at 2.04.
The same measure for U39C A96U: 1.52; for U39C A96G: 1.77; for U39C A96C: 0.78.
The same measure for U43C A95G: 2.15; for U39C A134G: 1.83; for C42A A98G: 0.37.
The same measure for C42U C128U: 1.41.
Regarding U43A C105U, the self-cleavage came to 0.1.
Then U43C C88U, with 1.59; and U43C A96G, with 1.09; and U43C A96C, with 1.
With U43A A111C, the self-cleavage is 0.03.
Then U43A A111G, with 0.03; and C40U A63G, with 2.13; and G44A A91G, with 0.42.
The same measure for G41C A111G: 0.02; for U39C U49C: 0.91; for G44A A51G: 2.19.
The same measure for U43A A118U: 0.9.
On to U43A A118G, for which the self-cleavage was determined as 1.25.
Consider U43A C128A, for which the self-cleavage was 0.8.
The same measure for G41A U43C: 1.72; for G41A U43A: 1.69; for U39C U127A: 2.26.
The same measure for C40U A69G: 0.94; for U43A U108C: 0.02; for G44A A94G: 1.48.
Then U43G A129G, with 1.19.
On to U43A A129G, for which the self-cleavage worked out at 0.65.
Then C40A A91G, with 1.76.
The same measure for C45U A68G: 1.96.
The same measure for C45A C101U: 0.48.
As for U39C A111G, the self-cleavage turned out to be 0.02.
The same measure for U39C A111C: 0.01; for U43C A117G: 1.75; for U43C A117U: 1.17.
On to U43C A60G, for which the self-cleavage was 1.43.
As to U43C A82U, the self-cleavage is 0.18.
The same measure for U43A A116G: 0.55; for G41A G136A: 1.2.
As to G44A U127C, the self-cleavage was 1.58.
Regarding G41U A94U, the self-cleavage came to 1.48.
The same measure for U43A U97C: 0.92.
Take G41A G106A: the self-cleavage amounted to 0.01.
For the variant U39G A126G, the self-cleavage was found to be 1.03.
The same measure for U39C U108A: 0.03; for G41A A63G: 1.4; for U39C A116C: 0.07.
As to U39C A116G, the self-cleavage came to 0.83.
With U39C C71U, the self-cleavage is 0.29.
The same measure for C40G: 1.62.
In the case of C40U, the self-cleavage is 1.57.
Then C40A, with 1.83; and C42A C45A, with 1.75; and U43A G53A, with 1.84.
The same measure for U43C C121U: 2.03; for U39G A90G: 1.08.
Then U43C A129G, with 1.1; and U39C U100C, with 2.44.
Regarding U39C U100A, the self-cleavage was 0.56.
Consider C40G U72C, for which the self-cleavage is 0.41.
Consider C40U U87C, for which the self-cleavage came to 1.44.
For U39C G41U, the self-cleavage was found to be 1.16.
Then U39C G41A, with 2; and C40U A62G, with 1.2.
Then C40U A62C, with 1.11; and U43G A126G, with 0.92; and U43C G99C, with 0.26.
The same measure for C40U A90G: 1.72.
As for C42G U108C, the self-cleavage was determined as 0.01.
The same measure for U39G A67U: 1.13; for U43C A51U: 1.35.
Then U39C G115U, with 0.04; and U39C C81U, with 0.63; and C45A A51G, with 1.35.
The same measure for U39G A62G: 1.3; for U43C U72A: 0.4; for U43C U72C: 0.07.
In the case of U43A U103C, the self-cleavage was found to be 1.1.
As to U43C A63G, the self-cleavage was 1.8.
The same measure for U43C A63U: 0.91; for C42U U130C: 1.09.
Then G41A U87C, with 0.63; and C45U C77A, with 0.42.
Regarding G41U A82G, the self-cleavage was 0.2.
As to U43A A52G, the self-cleavage was found to be 1.6.
Then G44U U70A, with 0.
With U43C A86C, the self-cleavage amounted to 1.4.
Consider U43C A91G, for which the self-cleavage worked out at 1.29.
Then C40A U102C, with 1.98; and U43C A78G, with 0.26.
Then U43C A78C, with 0.29.
The same measure for U39C G50U: 1.89.
Take C42U A96G: the self-cleavage came out at 2.35.
The same measure for U43C G58U: 0.07; for U43C G58A: 0.64.
Then U43A A110U, with 2.05; and G41U A91G, with 1.31; and U39C U87A, with 1.92.
G41A A86G: the self-cleavage came to 1.05.
The same measure for U43A U49A: 0.87; for C42U A91G: 1.09.
The same measure for C45G A90G: 1.2; for C42A A110G: 0.16.
The same measure for G41A U100C: 1.52.
With G44A U132A, the self-cleavage worked out at 1.35.
Then C40U A98G, with 0.83; and U43G A89G, with 1.26; and U43C A69U, with 1.74.
The same measure for G44A U57C: 1.84; for U43C C109A: 0.36.
Then U39C G53A, with 1.53.
In the case of U43A A114G, the self-cleavage was 0.86.
Turning to C40A U97C, the self-cleavage is 1.43.
The same measure for U43A A134G: 1.81; for U43C A140U: 1.18; for C46A A116G: 0.57.
The same measure for C45U U132C: 0.61; for C45U U132A: 1.05.
Then U39C U120C, with 0.95; and C40U G99A, with 0.32.
In the case of C45U A82G, the self-cleavage stood at 0.27.
The same measure for G44A A78G: 0.24; for U39C U103C: 0.93; for C45U A96U: 1.55.
Then C40U A114U, with 0.1; and U43A U57A, with 1.79.
Turning to U43C A92U, the self-cleavage was 1.6.
The same measure for U39C G58A: 0.67.
